For this assay, the target named is cytosolic carboxypeptidase 6 (CCP6), endogenous (human (endogenous in HEK 293T)) (UniProt Q5VU57). The experiment in a line: proximity ligation; Duolink PLA in HEK 293T cells fixed with 4% paraformaldehyde; primary antibodies against the two proteins; confocal microscopy; three independent experiments, at least 75 cells in total.
Chain of UniProt Q5VU57 (Q5VU57 whole entry): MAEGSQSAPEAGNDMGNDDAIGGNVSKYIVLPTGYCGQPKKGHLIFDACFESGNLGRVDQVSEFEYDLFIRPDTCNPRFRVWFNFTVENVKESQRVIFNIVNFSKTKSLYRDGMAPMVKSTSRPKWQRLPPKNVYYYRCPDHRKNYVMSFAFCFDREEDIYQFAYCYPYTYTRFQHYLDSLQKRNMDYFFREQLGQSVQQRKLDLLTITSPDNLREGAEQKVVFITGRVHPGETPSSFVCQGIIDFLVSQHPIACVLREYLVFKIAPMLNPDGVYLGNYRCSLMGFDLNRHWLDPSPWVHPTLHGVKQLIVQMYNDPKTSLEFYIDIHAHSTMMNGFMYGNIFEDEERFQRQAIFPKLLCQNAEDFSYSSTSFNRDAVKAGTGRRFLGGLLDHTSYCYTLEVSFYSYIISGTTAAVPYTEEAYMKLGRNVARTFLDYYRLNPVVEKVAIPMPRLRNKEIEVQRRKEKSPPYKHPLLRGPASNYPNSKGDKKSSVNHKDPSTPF
In the case of “NudC (from UniProt Q9Y266 1-331) (natural protein)”, the percent of cells with a positive PLA signal was 52%.

“Pericentriolar material 1 protein PCM1 (from UniProt Q15154 1-2024) (natural protein)”: the percent of cells with a positive PLA signal came to 73%.

“Progesterone-induced-blocking factor 1 PIBF1 (from UniProt Q8WXW3 1-757) (natural protein)” yielded a percent of cells with a positive PLA signal of 37%.
